Among the data in publication PMC8943035 are FRET efficiency values, retold here.

This assay has as its target muscle RAS oncogene homolog (MRAS) fused to mCherry, expressed from pmCherry-MRAS (UniProt O14807). The assay is described as follows: FRET or BRET; FRET between GFP (donor, excited at 488 nm) and mCherry (acceptor, emission 610 nm) fusion proteins, imaged in MCF-7 cells. Background: Bioluminescence resonance energy transfer reports proximity on the nanometre scale.

On to “G-protein gamma subunit 2 (GNG2) fused to EGFP, expressed from pEGFP-GNG2 (from UniProt P59768 1-71) (natural protein)”, for which the FRET efficiency stood at 11%.
